# B1: bacteriophage φ6 P2 RNA-dependent RNA polymerase (enzyme)
# chain: PRRAPAFPLSDIKAQMLFANNIKAQQASKRSFKEGAIETYEGLLSVDPRFLSFKNELSRYLTDHFPANVDEYGRVYGNGVRTNFFGMRHMNGFPMIPATWPLASNLKKRADADLADGPVSERDNLLFRAAVRLMFSDLEPVPLKIRKGSSTCIPYFSNDMGTKIEIAERALEKAEEAGNLMLQGKFDDAYQLHQMGGAYYVVYRAQSTDAITLDPKTGKFVSKDRMVADFEYAVTGGEQGSLFAASKDASRLKEQYGIDVPDGFFCERRRTAMGGPFALNAPIMAVAQPVRNKIYSKYAYTFHHTTRLNKEEKVKEWSLCVATDVSDHDTFWPGWLRDLICDELLNMGYAPWWVKLFETSLKLPVYVGAPAPEQGHTLLGDPSNPDLEVGLSSGQGATDLMGTLLMSITYLVMQLDHTAPHLNSRIKDMPSACRFLDSYWQGHEEIRQISKSDDAILGWTKGRALVGGHRLFEMLKEGKVNPSPYMKISYEHGGAFLGDILLYDSRREPGSAIFVGNINSMLNNQFSPEYGVQSGVRDRSKRKRPFPGLAWASMKDTYGACPIYSDVLEAIERCWWNAFGESYRAYREDMLKRDTLELSRYVASMARQAGLAELTPIDLEVLADPNKLQYKWTEADVSANIHEVLMHGVSVEKTERFLRSVMPR
# notes: P2, RNA-dependent RNA polymerase of bacteriophage φ6, 75 kDa, monomeric; X-ray structure PDB 1HHS was fitted into the density; also called P2 polymerase; source: self-assembled in vitro into P124 particles
# B2: bacteriophage φ6 protein P1 (natural protein, UniProt P11126 1-769, looked up)
# chain: MFNLKVKDLNGSARGLTQAFAIGELKNQLSVGALQLPLQFTRTFSASMTSELLWEVGKGNIDPVMYARLFFQYAQAGGALSVDELVNQFTEYHQSTACNPEIWRKLTAYITGSSNRAIKADAVGKVPPTAILEQLRTLAPSEHELFHHITTDFVCHVLSPLGFILPDAAYVYRVGRTATYPNFYALVDCVRASDLRRMLTALSSVDSKMLQATFKAKGALAPALISQHLANAATTAFERSRGNFDANAVVSSVLTILGRLWSPSTPKELDPSARLRNTNGIDQLRSNLALFIAYQDMVKQRGRAEVIFSDEELSSTIIPWFIEAMSEVSPFKLRPINETTSYIGQTSAIDHMGQPSHVVVYEDWQFAKEITAFTPVKLANNSNQRFLDVEPGISDRMSATLAPIGNTFAVSAFVKNRTAVYEAVSQRGTVNSNGAEMTLGFPSVVERDYALDRDPMVAIAALRTGIVDESLEARASNDLKRSMFNYYAAVMHYAVAHNPEVVVSEHQGVAAEQGSLYLVWNVRTELRIPVGYNAIEGGSIRTPEPLEAIAYNKPIQPSEVLQAKVLDLANHTTSIHIWPWHEASTEFAYEDAYSVTIRNKRYTAEVKEFELLGLGQRRERVRILKPTVAHAIIQMWYSWFVEDDRTLAAARRTSRDDAEKLAIDGRRMQNAVTLLRKIEMIGTTGIGASAVHLAQSRIVDQMAGRGLIDDSSDLHVGINRHRIRIWAGLAVLQMMGLLSRSEAEALTKVLGDSNALGMVVATTDIDPSL
# notes: P1, major shell protein of the bacteriophage φ6 polymerase complex; atomic structure PDB 4K7H was fitted into the capsid map; also called P1 shell; source: self-assembled in vitro into P124 particles; copies: 120
# Key:
# [1] = biological target: rotavirus triple-layered particle, non-VP4 protein components (rotavirus (strain not stated)) (UniProt P12476); assay: cryo-EM structure; rotavirus triple-layered particles, previously published data set (ref. 15); icosahedral reconstruction, subtraction of non-VP4 components, localized reconstruction and 3D classification of VP4 sub-particles
# [2] = biological target: B2; assay: cryo-EM structure; φ6 P124 particles self-assembled in vitro from purified P1, P2 and P4 (molar ratio 120:120:72, 6% PEG 4000, room temperature, 90 min), separated by rate-zonal sucrose gradient centrifugation, 20 mM Tris pH 8.0; icosahedral reconstruction and localized reconstruction with 3D classification of sub-particles at the threefold axes; conditions: both partners purified
# [3] = biological target: the molecule itself; assay: as above
# Chain of rotavirus triple-layered particle, non-VP4 protein components (rotavirus (strain not stated)) (P12476 whole entry, looked up): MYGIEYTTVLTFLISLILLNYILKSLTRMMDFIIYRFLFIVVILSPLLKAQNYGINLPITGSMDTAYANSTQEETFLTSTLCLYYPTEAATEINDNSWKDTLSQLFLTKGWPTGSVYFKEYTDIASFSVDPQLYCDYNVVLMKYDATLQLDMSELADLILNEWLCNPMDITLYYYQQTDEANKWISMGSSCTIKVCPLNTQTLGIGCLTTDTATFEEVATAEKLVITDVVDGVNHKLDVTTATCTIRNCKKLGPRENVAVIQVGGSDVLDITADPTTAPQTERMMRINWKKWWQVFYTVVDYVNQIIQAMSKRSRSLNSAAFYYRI
molecule,measurement,setting,value
rotavirus viral protein VP4 (from UniProt P12473 1-776) (natural protein),occupancy of VP4,[1],60 to 70%
B1,stoichiometry N,[2],~12 copies of P2 per particle
B2,binding result,[3],binds

# — publication PMC4667630, “Localized reconstruction of subunits from electron cryomicroscopy images of macromolecular complexes” (Nature Communications, 2015)
